One data set addresses T1, PvNTD2 (Phaseolus vulgaris, UniProt V7AIP8).
T1 construct: gene PHAVU_011G182400g; ORF without predicted signal peptide (cleavage predicted between 24 and 25)
T1 sequence (V7AIP8 25-269): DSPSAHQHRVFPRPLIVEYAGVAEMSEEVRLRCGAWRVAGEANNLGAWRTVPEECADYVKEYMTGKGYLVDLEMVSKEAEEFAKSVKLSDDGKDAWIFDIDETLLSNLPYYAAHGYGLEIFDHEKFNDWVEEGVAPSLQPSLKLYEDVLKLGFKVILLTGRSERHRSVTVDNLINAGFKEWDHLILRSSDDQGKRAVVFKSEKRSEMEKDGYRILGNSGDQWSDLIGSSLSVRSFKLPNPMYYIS
The experiment in a line: phosphate release, inhibition of phosphatase activity. Format: biochemical. Particulars: 2 mM UMP substrate (other nucleotides also tested), pH 7, 1 mM MgCl2, 37 °C; reaction product.

Substrate in data set [1]: Cc1cn([C@H]2C[C@H](O)[C@@H](COP(=O)(O)O)O2)c(=O)[nH]c1=O
The experiment in a line: phosphate release, Hanes-Woolf plot. The format is biochemical, Phaseolus vulgaris. Particulars: 50 mM TES-NaOH pH 7, 1 mM MgCl2, 37 °C. An excerpt:
(§1) phosphate release, Hanes-Woolf plot on PvNTD2

Substrate in data set [2]: Nc1ncnc2c1ncn2[C@@H]1O[C@H](COP(=O)(O)O)[C@@H](O)[C@H]1O
The experiment in a line: phosphate release, Hanes-Woolf plot. Format: biochemical, Phaseolus vulgaris. Particulars: 50 mM TES-NaOH pH 7, 1 mM MgCl2, 37 °C.
From the text: as §1

Substrate in data set [3]: O=c1[nH]c(=O)c2ncn([C@@H]3O[C@H](COP(=O)(O)O)[C@@H](O)[C@H]3O)c2[nH]1
Nature of the data set: phosphate release, Hanes-Woolf plot. The format is biochemical, Phaseolus vulgaris. Particulars: 50 mM TES-NaOH pH 7, 1 mM MgCl2, 37 °C.
From the text: as §1

Substrate in data set [4]: O=c1ccn([C@@H]2O[C@H](COP(=O)(O)O)[C@@H](O)[C@H]2O)c(=O)[nH]1
Nature of the data set: phosphate release, Hanes-Woolf plot. Particulars: 50 mM TES-NaOH pH 7, 1 mM MgCl2, 37 °C. Format: biochemical, Phaseolus vulgaris.
From the text: as §1

With `Nc1ncnc2c1ncn2[C@@H]1O[C@H](CO)[C@@H](O)[C@H]1O` [adenosine], on PvNTD2, the “% activity at 0.2 mM” value was “The activity of the recombinant protein was strongly inhibited in the presence of adenosine”.

B1: PvNTD2 (Phaseolus vulgaris) (protein)
chain: DSPSAHQHRVFPRPLIVEYAGVAEMSEEVRLRCGAWRVAGEANNLGAWRTVPEECADYVKEYMTGKGYLVDLEMVSKEAEEFAKSVKLSDDGKDAWIFDIDETLLSNLPYYAAHGYGLEIFDHEKFNDWVEEGVAPSLQPSLKLYEDVLKLGFKVILLTGRSERHRSVTVDNLINAGFKEWDHLILRSSDDQGKRAVVFKSEKRSEMEKDGYRILGNSGDQWSDLIGSSLSVRSFKLPNPMYYIS
notes: ORF without predicted signal peptide (cleavage predicted between 24 and 25)
The Km is the substrate concentration at which the rate is half of its maximum. As usually defined, the Vmax is the rate approached at saturating substrate. For B1, the Km in data set [1] came to 63 µM; in data set [2] it was 11 µM; in data set [3], 95 µM; in data set [4], 39 µM. For the same molecule, the Vmax was found to be 4.08 µmol/min/mg in data set [1], 1.46 µmol/min/mg in data set [2], 4.22 µmol/min/mg in data set [3] and 4 µmol/min/mg in data set [4].

Values taken from publication PMC7076459, “Biochemical and Molecular Characterization of PvNTD2, a Nucleotidase Highly Expressed in Nodules from Phaseolus vulgaris” (Plants, 2020).
